Literature values as cited in patent US20210000129A1, “COMPOSITION FOR LOWERING BLOOD PRESSURE AND/OR REDUCING NEUTRAL FATS” (MORINAGA MILK INDUSTRY CO., LTD., priority 2018, published 2021).

Key:
[1] = target: angiotensin converting enzyme (Homo sapiens, UniProt P12821); conditions: known from References 1 to 3
dipeptidyl-peptidase IV = dipeptidyl-peptidase IV (Homo sapiens, UniProt P27487); conditions: known from References 1 to 3
dipeptidyl-peptidase IV, sequence (P27487 whole entry, species assumed): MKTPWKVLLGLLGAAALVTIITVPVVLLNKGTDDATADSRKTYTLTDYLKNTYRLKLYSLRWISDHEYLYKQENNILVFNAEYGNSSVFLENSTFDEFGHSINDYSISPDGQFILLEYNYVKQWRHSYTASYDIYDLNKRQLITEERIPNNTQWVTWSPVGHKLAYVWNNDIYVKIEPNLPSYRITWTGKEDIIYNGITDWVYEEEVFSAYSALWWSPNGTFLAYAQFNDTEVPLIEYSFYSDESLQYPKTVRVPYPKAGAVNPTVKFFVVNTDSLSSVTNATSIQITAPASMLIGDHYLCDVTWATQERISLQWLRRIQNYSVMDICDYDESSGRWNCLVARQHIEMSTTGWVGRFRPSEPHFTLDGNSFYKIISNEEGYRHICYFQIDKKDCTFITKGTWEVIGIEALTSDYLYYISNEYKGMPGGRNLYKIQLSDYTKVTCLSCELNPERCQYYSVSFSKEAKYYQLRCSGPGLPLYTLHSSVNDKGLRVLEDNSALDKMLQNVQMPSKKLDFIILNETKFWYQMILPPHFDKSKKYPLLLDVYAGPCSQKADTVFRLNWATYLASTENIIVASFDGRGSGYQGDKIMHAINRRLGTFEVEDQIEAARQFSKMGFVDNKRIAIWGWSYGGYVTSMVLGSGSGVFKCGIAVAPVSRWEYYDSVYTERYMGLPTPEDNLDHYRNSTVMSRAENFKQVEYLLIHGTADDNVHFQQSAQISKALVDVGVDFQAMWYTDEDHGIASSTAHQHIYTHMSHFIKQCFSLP

angiotensin converting enzyme, sequence (P12821 30-1306, species assumed): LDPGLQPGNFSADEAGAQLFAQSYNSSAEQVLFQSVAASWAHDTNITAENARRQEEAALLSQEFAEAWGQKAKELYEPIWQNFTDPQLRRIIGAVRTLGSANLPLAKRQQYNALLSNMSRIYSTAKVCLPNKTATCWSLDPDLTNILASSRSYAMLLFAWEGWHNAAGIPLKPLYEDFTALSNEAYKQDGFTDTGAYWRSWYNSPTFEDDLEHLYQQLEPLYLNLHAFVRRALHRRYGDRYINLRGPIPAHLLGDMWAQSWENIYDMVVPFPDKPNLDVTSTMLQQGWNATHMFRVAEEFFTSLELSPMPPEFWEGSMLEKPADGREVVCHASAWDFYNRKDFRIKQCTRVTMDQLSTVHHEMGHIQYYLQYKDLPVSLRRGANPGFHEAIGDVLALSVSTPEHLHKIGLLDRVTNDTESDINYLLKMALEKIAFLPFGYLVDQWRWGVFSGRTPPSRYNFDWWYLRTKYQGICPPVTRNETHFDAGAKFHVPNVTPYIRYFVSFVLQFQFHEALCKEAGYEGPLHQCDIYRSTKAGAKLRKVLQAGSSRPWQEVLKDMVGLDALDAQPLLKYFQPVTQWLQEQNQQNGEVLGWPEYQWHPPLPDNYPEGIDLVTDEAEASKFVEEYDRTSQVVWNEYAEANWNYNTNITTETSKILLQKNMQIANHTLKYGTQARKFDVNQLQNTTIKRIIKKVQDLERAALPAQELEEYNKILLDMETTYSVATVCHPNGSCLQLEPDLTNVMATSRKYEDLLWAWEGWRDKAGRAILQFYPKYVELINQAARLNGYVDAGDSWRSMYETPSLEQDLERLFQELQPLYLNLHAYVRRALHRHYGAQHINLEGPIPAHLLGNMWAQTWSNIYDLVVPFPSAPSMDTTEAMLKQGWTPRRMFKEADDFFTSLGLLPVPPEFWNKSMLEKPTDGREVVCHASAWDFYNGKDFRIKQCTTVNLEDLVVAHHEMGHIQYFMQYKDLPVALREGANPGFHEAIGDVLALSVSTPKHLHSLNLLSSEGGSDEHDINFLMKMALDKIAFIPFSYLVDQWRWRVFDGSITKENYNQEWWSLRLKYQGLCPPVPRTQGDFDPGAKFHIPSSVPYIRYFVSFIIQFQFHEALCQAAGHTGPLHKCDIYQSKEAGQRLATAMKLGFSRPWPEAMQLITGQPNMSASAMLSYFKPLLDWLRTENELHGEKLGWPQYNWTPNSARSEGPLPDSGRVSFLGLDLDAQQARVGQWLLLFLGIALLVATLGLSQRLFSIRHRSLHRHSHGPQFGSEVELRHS

Substance: Met-Lys-Pro (MKP) [tripeptide MKP]
- angiotensin converting enzyme-inhibiting action [1]: angiotensin converting enzyme-inhibiting action
- dipeptidyl-peptidase IV-inhibiting action (dipeptidyl-peptidase IV): dipeptidyl-peptidase IV-inhibiting action
